Holding throughout (conditions): both partners purified
One experiment deals with HtsH3C-Myc-His (Lysobacter enzymogenes). Put plainly: SPR; HtsH cytoplasmic fragments against each other (Supplementary Fig. 5); who was immobilised and conditions not told. (In general: Surface plasmon resonance follows binding to a sensor surface in real time, without labels.)
The next experiment deals with HtsH2C-HA-His (Lysobacter enzymogenes). The experiment is described as above.
In another experiment the target is T1, RpfG-MBP (Lysobacter enzymogenes).
T1 chain: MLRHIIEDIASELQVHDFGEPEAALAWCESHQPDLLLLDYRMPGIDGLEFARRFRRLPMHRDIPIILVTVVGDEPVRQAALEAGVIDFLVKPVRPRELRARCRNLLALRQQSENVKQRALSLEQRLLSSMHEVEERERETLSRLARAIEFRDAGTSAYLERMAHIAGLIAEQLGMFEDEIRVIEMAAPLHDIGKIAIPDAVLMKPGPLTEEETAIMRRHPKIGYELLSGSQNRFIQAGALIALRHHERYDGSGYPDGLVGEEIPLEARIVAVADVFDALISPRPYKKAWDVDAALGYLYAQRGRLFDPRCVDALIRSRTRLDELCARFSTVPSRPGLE
Description: SPR; RpfG-MBP on the sensor, HtsH cytoplasmic fragments bound to it; conditions not given.

B1: HtsH1C-Flag-His (domain or fragment)
chain: not shown
modifications: Phosphorylated as purified (CIAP-sensitive). Limits from the expression primers: (M)AKTRFL... to ...LFEREA, just before the His-kinase domain to the C-terminus. The start codon Met and Flag/His tags …
A word on the Kd: it is the free concentration of one partner at which half of the binding sites on the other are occupied at equilibrium, for simple one-to-one binding. Higher therefore signals lower affinity. For the molecule B1, the Kd with HtsH3C-Myc-His was 160 nM; with HtsH2C-HA-His it was 96.2 nM; in the experiment with RpfG-MBP, 66.8 nM.

B2: HtsH3C-Myc-His (domain or fragment)
chain: not shown
modifications: Phosphorylated as purified (CIAP-sensitive). Primers give (M)AKTRFL... to ...ARRGEG (C-terminus). Positions are inferred from the candidate's His-kinase domain start. Assignment of this entry to …
B2 gave a dissociation constant (Kd) in the experiment with RpfG-MBP of 168 nM. In other words, the sub-micromolar range.

B3: HtsH2C-HA-His (domain or fragment)
chain: not shown
modifications: Phosphorylated as purified (CIAP-sensitive). Primers give (M)AKTRFL... to ...DAADAP (C-terminus). The candidate lists no features, so the start is estimated from the paralogues' fragment lengths and …
As for B3, the Kd with HtsH3C-Myc-His came to 178 nM; with RpfG-MBP, 300 nM.
